# ± gives the uncertainty stated by the source.
# Assay: amyloid nucleation score (Sup35N fusion, yeast selection) (log enrichment); library NNK3; higher = more nucleation; inactive = no reads after selection
# How it was run: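 The nucleation score is the log enrichment of output over input reads, calculated with DiMSum and centred on the mode score of non-aggregating sequences. Sequences with under 100 input reads were excluded. Reads came from Illumina sequencing of plasmid inserts from psi-negative yeast expressing Sup35N fused to peptides of 20 random codons, induced 24 hours with 100 μM copper sulfate and grown 7 days at 30°C without adenine and uracil.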
row,Substance,amyloid nucleation score
1,RCSDWYHFTAQSS,inactive
2,GGARL,inactive
3,SCVAVSI,inactive
4,TVFMYRRVFSIRWG,inactive
5,KGLFWEGYGMMLRLRWWMMV,inactive
6,NLLDYTVIVNSLSFVDSKSS,inactive
7,YFFIRVIALYLRVELSL,inactive
8,KYQLPRDNFS,inactive
9,CNKSFRLYEMM,inactive
10,LVADSDRMNVTLRFTVSYCS,inactive
11,IHNGKDTLAVVWYGFLIMFW,inactive
12,VFNRSCINFKRYGSA,inactive
13,GIYGRTGHSYVF,inactive
14,VHYKVKGSLPFCCGYFNSLW,1.67 ± 0.079
15,GFRYSLLSSRSFYWHRSPSM,inactive
16,IRVSN,inactive
17,WCFCFMCSFMTKFFHYLGS,inactive
18,SRVNFM,inactive
19,SWRLYMMA,inactive
20,LFNYLFLVP,inactive
21,FDVFISENNDAGSHNVEMYQ,inactive
22,LKNGLYYHHYFTFLMAYIHQ,inactive
23,LNSTVSGKFMLL,0.078 ± 0.66
24,FFFLLKMRHKPSASANLNSN,inactive

row,Substance,amyloid nucleation score
1,LTRFRDIRFLINKNGACKEW,-0.213 ± 0.71
2,AHFFVCCALSDRCRLRDVLQ,inactive
3,CTNKFVWKFVKFNNLCLLAY,inactive
4,SSQFTHEETGFCDVVPVVCG,inactive
5,LFLVYGGYIFAQRKFAFNSS,inactive
6,YTALL,inactive
7,RTFMYMWRSEIF,inactive
8,FLQECRDCQGTVRNKSSAP,inactive
9,CVKVGDGCLHASIGAR,inactive
10,STVTDTYRLDTWTTWETDRG,1.98 ± 0.095
11,CIMFVFILLQYAFYIYILLV,inactive
12,KSMYWLYCTEWEHSNMHVFM,0.17 ± 0.68
13,LYSIWGRNRGHGMIGWDPLT,inactive
14,VTGIIRRIYLLF,inactive
15,IYIFGFQTVCNSLIGGLSIA,inactive
16,RMHDSCFLYGISEDRDSLGN,inactive
17,ILLALN,0.03 ± 0.88
18,GLKNV,-0.431 ± 0.8
19,MWLRFKDFVVRWN,inactive
20,CWDFKGFMMESLTNRSPYAS,inactive
21,GFVNSVRFDLIECDVLKRSN,inactive
22,CEVHEGWIA,inactive
23,YVWASIFFFTSYDEVVGRHV,1.46 ± 0.13
24,RQSALRWFSNDNWGICKAHD,-0.06 ± 0.87

row,Substance,amyloid nucleation score
1,VIILTYVSMLTTAHINGWSG,0.309 ± 0.29
2,NTIRKKNLLFQAWLC,inactive
3,RLSAPCCWYNTLIE,1.96 ± 0.099
4,IKWEQRLVVYIAYKKHRWQR,inactive
5,AVTFTHRFSRISPCHRRRWK,1.16 ± 0.1
6,CHLYLPSQTSQH,inactive
7,YKLRVNSVETNCTEILTLVE,inactive
8,NTSYSRMVCSKG,inactive
9,KYLAFLQLCGAPMYLWTPPI,0.757 ± 0.3
10,VDEFFGRGVHWLTVRLGLGM,inactive
11,TYLLFGSTLGLSQWVYLDVE,inactive
12,VVSIYVGSYMSIICKS,1.95 ± 0.059
13,DFWRTIEGKMSLALI,inactive
14,LCETCKNVARIYSFLIGMTD,inactive
15,INLLVSVKGWYYVAPTAWYE,1.16 ± 0.15
16,VFFRYWV,1.62 ± 0.073
17,KRNRRTISLMTKFIMGKPGY,inactive
18,YPLYVHRCLIMTFMLSLWPR,inactive
19,YLVSLRLVYSNILEFVKRVC,inactive
20,AISYYYEHARLGWYGVELRP,inactive
21,DIQYWYTPVTKMTYSTNWFF,1.26 ± 0.1
22,VLLVLVI,inactive
23,AGPVF,inactive
24,YQNILLAYYDWVVLYQ,inactive

row,Substance,amyloid nucleation score
1,LLYETLLIIMCGKCLQFYIV,inactive
2,HDRDHDMINSFIAFRQYWPW,0.339 ± 0.34
3,INVPLALLSYGV,inactive
4,LVTFCYLDGSILNGEALRG,inactive
5,CIPLLFWVWSSNVCVRLKLQ,inactive
6,GVLRLVISEHDLDETFVFMT,0.189 ± 0.43
7,HNWNRFTQSILWGTYNFFVG,2.26 ± 0.085
8,LKPQHSSGGSLSRMIYRPFL,2.18 ± 0.088
9,NSWDYYVAWPFVRFG,-0.947 ± 0.98
10,RIEAFLAP,1.12 ± 0.18
11,SVSSRHSAW,inactive
12,NYLYVELIWLHFSSMALRDD,inactive
13,SPRAFTASVEGVSEL,inactive
14,YWYIIYAMSGLWYSSVNRVD,inactive
15,ADIDLVGVDCPWCGGLESFP,-0.342 ± 1.2
16,NSRYQILITLDLC,inactive
17,HLWHSVWYALRDSPSLGFFI,inactive
18,TVICISHTFSGHCLSSYEVW,inactive
19,VARELGLCYVWAGSRGVSRV,-0.323 ± 1.8
20,LELRYCLFADPMI,inactive
21,FDLWFIRIGV,-0.221 ± 0.46
22,TLVSQMPCNM,inactive
23,SNCTLRE,inactive
24,PCKDLQTYWFENWCQRFGR,inactive

row,Substance,amyloid nucleation score
1,KDCMVYWLRI,inactive
2,RSNLIILSAHYRLYMDLRCA,inactive
3,LSEMANDHEHVYSYRKAHYM,-0.626 ± 0.8
4,RRMNISRGSCVELWFRFQWP,0.163 ± 0.43
5,RGINDDSPF,inactive
6,TPCNRREISWFVFSLPA,inactive
7,PSRRRMYADFHKATFPVRMG,inactive
8,KATWSCLHLATHSASPCQSA,inactive
9,VNDPEAR,-0.391 ± 1.2
10,TRCSG,inactive
11,WYGVSACYGWHNVAHSSRTR,inactive
12,ERDFLF,inactive
13,TTSLKTHVLPRNVFRFEPYM,inactive
14,MYVPIPVYFQF,inactive
15,TTDLKC,inactive
16,KNINVLYHICAALKSCAFCT,inactive
17,DDASFIMERI,inactive
18,FYGECKSVSGNCLTMNGRYT,-0.561 ± 0.59
19,LICAW,inactive
20,FSRFSNAFPKNCWVLLVENS,inactive
21,ILIGPSGFMYLDVSFFQFQR,0.856 ± 0.25
22,SNSHWIYWYTNPGQHRPSHR,inactive
23,NSRSFNTFKYNYGMLGFGVA,-0.612 ± 0.84
24,NRRGSSVVRI,inactive

row,Substance,amyloid nucleation score
1,CLSFYCTVSKKVRRKAVTPF,0.807 ± 0.2
2,RLGLSAMSFCLCDSTSIATY,inactive
3,SWSGCGLVPSSVSWGYGTCV,-0.47 ± 1.9
4,FWMILMDMLFMRLGSL,inactive
5,PDLIHFTCLSSWFSSVVALV,inactive
6,GVGFQGYVTRGKNRLRDRAQ,inactive
7,NAQGVSKWEDTRSNLNRLVV,inactive
8,GYNICWTPWYAVLDGVTKML,inactive
9,PHMNWSYVPQF,inactive
10,LMGLCTLI,inactive
11,VSYCAWSFEG,inactive
12,SMFNGNLSRSMWFWRVRVTP,inactive
13,HCAMCWGILEFEISMFAMEW,inactive
14,YCSCMLTGNMGRSH,-0.032 ± 0.33
15,CWLNLGVLKSLY,inactive
16,VCTPNRCLSTLSR,inactive
17,DYTSYILLS,inactive
18,FSYCDGRLLSSNRYYSESLY,inactive
19,MHFRTSDIPTTLELGLLGWP,0.096 ± 0.47
20,WYSNYCMIDRHGVFEVVSCM,inactive
21,FIYSFLSYHIWTFKPPVVVG,inactive
22,NDGFMDVVNTSGSNLCMARN,inactive
23,LIYANEYA,inactive
24,TFEEFESTARLGFHERGDFY,inactive

row,Substance,amyloid nucleation score
1,IWGPTADKSRSVIGSVIKQG,inactive
2,QGFFRFSLVSAKRACKLDYS,inactive
3,VVITYSFRVQHV,inactive
4,SIWEHRSNS,inactive
5,WRNMTI,inactive
6,VMSCYAYYFTTRQDFPFLWD,inactive
7,RSKRSLCRGLPDMYAWKWSR,inactive
8,YISLISCMGKVNY,2.31 ± 0.089
9,ICGNPLVLLMNNSVRLG,0.092 ± 0.64
10,RSGWS,inactive
11,LLAWFHNCRLRLI,inactive
12,RKASSVFILGFVWWDHFEIL,inactive
13,LVSVGSDWDCLHFISGKFPG,inactive
14,NYMYGLRGSRLQFGMFRFGG,inactive
15,TSYYIYTVSFDGCCSNLRTV,1.56 ± 0.13
16,INVSLGHAGEGWVWLALHLR,inactive
17,VNWHNIKVTEDVKVG,inactive
18,YLIAIG,inactive
